Here are results for two variants from IntAct's records for PubMed 17435768.

B1: Heterogeneous nuclear ribonucleoprotein M (Homo sapiens), P52272 (parent)
chain: MAAGVEAAAEVAATEIKMEEESGAPGVPSGNGAPGPKGEGERPAQNEKRKEKNIKRGGNRFEPYANPTKRYRAFITNIPFDVKWQSLKDLVKEKVGEVTYVELLMDAEGKSRGCAVVEFKMEESMKKAAEVLNKHSLSGRPLKVKEDPDGEHARRAMQKVMATTGGMGMGPGGPGMITIPPSILNNPNIPNEIIHALQAGRLGSTVFVANLDYKVGWKKLKEVFSMAGVVVRADILEDKDGKSRGIGTVTFEQSIEAVQAISMFNGQLLFDRPMHVKMDERALPKGDFFPPERPQQLPHGLGGIGMGLGPGGQPIDANHLNKGIGMGNIGPAGMGMEGIGFGINKMGGMEGPFGGGMENMGRFGSGMNMGRINEILSNALKRGEIIAKQGGGGGGGSVPGIERMGPGIDRLGGAGMERMGAGLGHGMDRVGSEIERMGLVMDRMGSVERMGSGIERMGPLGLDHMASSIERMGQTMERIGSGVERMGAGMGFGLERMAAPIDRVGQTIERMGSGVERMGPAIERMGLSMERMVPAGMGAGLERMGPVMDRMATGLERMGANNLERMGLERMGANSLERMGLERMGANSLERMGPAMGPALGAGIERMGLAMGGGGGASFDRAIEMERGNFGGSFAGSFGGAGGHAPGVARKACQIFVRNLPFDFTWKMLKDKFNECGHVLYADIKMENGKSKGCGVVKFESPEVAERACRMMNGMKLSGREIDVRIDRNA
B2: Heterogeneous nuclear ribonucleoprotein A1 (Homo sapiens), P09651-2 (parent)
chain: MSKSESPKEPEQLRKLFIGGLSFETTDESLRSHFEQWGTLTDCVVMRDPNTKRSRGFGFVTYATVEEVDAAMNARPHKVDGRVVEPKRAVSREDSQRPGAHLTVKKIFVGGIKEDTEEHHLRDYFEQYGKIEVIEIMTDRGSGKKRGFAFVTFDDHDSVDKIVIQKYHTVNGHNCEVRKALSKQEMASASSSQRGRSGSGNFGGGRGGGFGGNDNFGRGGNFSGRGGFGGSRGGGGYGGSGDGYNGFGNDGSNFGGGGSYNDFGNYNNQSSNFGPMKGGNFGGRSSGPYGGGGQYFAKPRNQGGYGGSSSSSSYGSGRRF

One assay covers variants of B1. Conditions: with tnpo1_human TNPO1, Q92973.
Sequence of tnpo1_human TNPO1, Q92973 (Q92973 whole entry): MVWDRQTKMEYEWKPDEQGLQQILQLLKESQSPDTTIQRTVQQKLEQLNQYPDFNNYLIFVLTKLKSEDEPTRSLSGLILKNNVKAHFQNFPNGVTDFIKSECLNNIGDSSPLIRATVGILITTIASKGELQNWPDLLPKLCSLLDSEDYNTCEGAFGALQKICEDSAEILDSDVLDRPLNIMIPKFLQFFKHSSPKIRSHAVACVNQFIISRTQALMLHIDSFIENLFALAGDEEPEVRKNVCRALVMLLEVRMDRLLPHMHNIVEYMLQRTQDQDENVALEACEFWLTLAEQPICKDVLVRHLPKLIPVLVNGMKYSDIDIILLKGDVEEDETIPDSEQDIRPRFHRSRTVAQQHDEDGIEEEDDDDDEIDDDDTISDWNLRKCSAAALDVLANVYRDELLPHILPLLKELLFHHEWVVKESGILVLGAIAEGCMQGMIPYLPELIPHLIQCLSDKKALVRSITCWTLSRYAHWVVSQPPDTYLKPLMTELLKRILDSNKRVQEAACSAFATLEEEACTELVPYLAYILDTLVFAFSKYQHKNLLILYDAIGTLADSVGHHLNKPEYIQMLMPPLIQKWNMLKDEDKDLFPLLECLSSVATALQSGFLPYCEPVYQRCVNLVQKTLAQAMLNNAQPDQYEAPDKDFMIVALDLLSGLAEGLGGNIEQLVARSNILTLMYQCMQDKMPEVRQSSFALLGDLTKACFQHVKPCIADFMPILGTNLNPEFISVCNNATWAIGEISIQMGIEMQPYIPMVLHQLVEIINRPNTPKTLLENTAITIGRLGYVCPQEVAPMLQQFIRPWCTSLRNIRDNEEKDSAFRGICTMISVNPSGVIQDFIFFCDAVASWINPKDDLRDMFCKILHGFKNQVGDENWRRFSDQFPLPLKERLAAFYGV
For P63A;Y64A, the “effect of a mutation on the interaction” value is “decreasing interaction strength”.

The variants in a further assay derive from B2. As to conditions: with tnpo1_human TNPO1, Q92973.
With G274A, the “effect of a mutation on the interaction” value is given as “decreasing interaction”.
